Here are results for 14 molecules from patent US20130109846A1 (published 2013).

Experiment [1] addresses T1, recombinant human CD28/Fc Chimera (human, UniProt P10747 19-152).
T1 construct: bought from R&D Systems; Fc part of the bought chimera not given
Kind of experiment: BIAcore, CM5 chip coated with 12500 RU of CD28-Fc.

The target of experiment [2] is T2, human CD28 (human, UniProt P10747 19-220). The experiment can be described thus: cell-based or functional assay.
Experiment [3] deals with T2, human CD28. The experiment can be described thus: cell-based or functional assay. The source holds these as a separate data set.
Experiment [4] addresses T2, human CD28. Kind of experiment: cell-based or functional assay. This is another data set of the same source.
The target of experiment [5] is T2, human CD28. The experiment can be described thus: cell-based or functional assay. This is another data set of the same source.
For experiment [6], the target named is T2, human CD28. The experiment can be described thus: cell-based or functional assay. This is another data set of the same source.

B1: DOM21-18 (other)
VL: DIQMTQSPSSLSASVGDRVTITCRASQYIGTSLNWYQQKPGKAPKLLTYQASLLQSGVPSRFSGSGSGTDFTLTISSLQPEDFATYYCQQLALRPMTFGQGTKVEIKR
notes: VK dAb
In the case of B1, in experiment [1], the binding result is “binds”.

B2: DOM21-22 (other)
VH: EVQLLESGGGLVQPGGSLRLSCAASGFTFELYQMGWVRQAPGKGLEWVSTIMPSGNLTYYADSVKGRFTISRDNSKNTLYLQMNSLRAEDTAVYYCAKMWSLNLGFHAAFDYWGQGTLVTVSS
notes: VH dAb
As for B2, the binding result in experiment [1] was “binds”.

B3: DOM21-38 (other)
VH: EVQLLESGGGLVQPGGSLRLSCAASGFTFILYDMQWVRQAPGKGLEWVSRISANGHDTYYADSVKGRFTISRDNSKNTLYLQMNSLRAEDTAVYYCAKGPHYLFDYWGQGTLVTVSS
notes: VH dAb
In the case of B3, the binding result in experiment [1] is reported as “binds”.

B4: DOM21-20 (other)
VH: EVQLLESGGGLVQPGGSLRLSCAASGFTFPAYSMIWVRQAPGKGLEWVSTISPLGYSTYYADSVKGRFTISRDNSKNTLYLQMNSLRAEDTAVYYCAEQTAYLNRATEHFDYWGQGTLVTVSS
notes: VH dAb
B4: in experiment [1], the binding result is given as “binds”.

B5: 1h-99-265 (other)
VH: EVQLLESGGGLVQPGGSLRLSCAASGFTFDKSNMSWARQAPGKGLEWVSWIEASGVQTFYADSVKGRFTISRDNSKNTLYLQMNSLRAEDTAVYYCAKSPFGPLYGFDYRGQGTLVTVSS
Take B5: in the experiment with human CD28 [2], the “Luciferase assay (EC50)” value came to 4 nM and the “MLR assay (EC50)” value was 3 nM. In the experiment with human CD28 [3], the “IFNγ (EC50 nM), DC-driven MLR” value was found to be 4.6 nM; the “IL-2 (EC50 nM), DC-driven MLR” value turned out to be 2.4 nM; the “TNFα (EC50 nM), DC-driven MLR” value was determined as 3.6 nM.

B6: DOM21-27 (other)
VL: DIQMTQSPSSLSASVGDRVTITCRASQSIGTGLRWYQQKPGKAPMLLIYRASILQSGVPSRFSGSGSGTDFTLTISSLQPEDFATYYCQQTTLQPFTFSQGTKVEIKR
notes: VK dAb
For the molecule B6, the binding result in experiment [1] is “binds”.

B7: DOM21-4 (other)
VH: EVQLLESGGGLVQPGGSLRLSCAASGFTFSRYHMAWVRQAPGKGLEWVSVIDSLGLQTYYADSVKGRFTISRDNSKNTLYLQMNSLRAEDTAVYYCAEYGGAFDYWGQGTLVTVSS
notes: VH dAb
Consider B7, for which the binding result in experiment [1] is reported as “binds”.

B8: 1h-239-891 (other)
VL: DIQMTQSPSSLSASVGDRVTITCRASRPIWPFLEWYQQKPGKAPKLLIYFTSRLRHGVPSRFSGSGSGTDFTLTISSLQPEDFATYYCLQNVANPATFSQGTKVEIKR
As to B8, in the experiment with human CD28 [4], the “DC-MLR Assay (EC50 nM)” value was 0.5 nM and the “Luciferase assay (EC50 nM)” value was 0.2 nM. In the experiment with human CD28 [3], the “IFNγ (EC50 nM), DC-driven MLR” value amounted to 0.2 nM; the “IL-2 (EC50 nM), DC-driven MLR” value came out at 0.1 nM; the “TNFα (EC50 nM), DC-driven MLR” value amounted to 0.2 nM. Moreover, in the experiment with human CD28 [5], the “CD80 CHO (EC50 nM), T cell proliferation” value worked out at 0.3 nM and the “CD86 CHO (EC50 nM), T cell proliferation” value was found to be 0.4 nM.

B9: 1h-239-891(D70C) 40K branched PEG (other)
VL: DIQMTQSPSSLSASVGDRVTITCRASRPIWPFLEWYQQKPGKAPKLLIYFTSRLRHGVPSRFSGSGSGTCFTLTISSLQPEDFATYYCLQNVANPATFSQGTKVEIKR
modifications: 40 kDa branched PEG; engineered cysteine D70C
As for B9, the “DC-MLR Assay (EC50 nM)” value in the experiment with human CD28 [4] worked out at 2.3 nM. Further, in the experiment with human CD28 [3], the “IFNγ (EC50 nM), DC-driven MLR” value came to 2.5 nM; the “IL-2 (EC50 nM), DC-driven MLR” value turned out to be 1.5 nM; the “TNFα (EC50 nM), DC-driven MLR” value is 1.7 nM. In addition, in the experiment with human CD28 [5], the “CD80 CHO (EC50 nM), T cell proliferation” value turned out to be 0.4 nM and the “CD86 CHO (EC50 nM), T cell proliferation” value came to 0.4 nM. The “EC50 of T cell proliferation, Monocytes as APC” value with human CD28 [6] was 10.

B10: 1h-239-896 (other)
VL: DIQMTQSPSSLSASVGDRVTITCRASRPIWPFLEWYQQKPGKAPKLLIYFTSRLARGVPSRFSGSGSGTDFTLTISSLQPEDFATYYCLQNVQMPATFSQGTKVEIKR
For the molecule B10, in the experiment with human CD28 [3], the “IFNγ (EC50 nM), DC-driven MLR” value came out at 0.3 nM; the “IL-2 (EC50 nM), DC-driven MLR” value is 0.3 nM; the “TNFα (EC50 nM), DC-driven MLR” value is 0.3 nM.

B11: 1h-239-891(D70C) 30K linear PEG (other)
VL: DIQMTQSPSSLSASVGDRVTITCRASRPIWPFLEWYQQKPGKAPKLLIYFTSRLRHGVPSRFSGSGSGTCFTLTISSLQPEDFATYYCLQNVANPATFSQGTKVEIKR
modifications: 30 kDa linear PEG; engineered cysteine D70C
In the case of B11, the “DC-MLR Assay (EC50 nM)” value with human CD28 [4] was 1.2 nM. In the experiment with human CD28 [3], the “IFNγ (EC50 nM), DC-driven MLR” value was found to be 0.6 nM; the “IL-2 (EC50 nM), DC-driven MLR” value came out at 0.6 nM; the “TNFα (EC50 nM), DC-driven MLR” value was 0.6 nM. Besides, in the experiment with human CD28 [5], the “CD80 CHO (EC50 nM), T cell proliferation” value came to 1 nM and the “CD86 CHO (EC50 nM), T cell proliferation” value was 0.5 nM.

B12: DOM21-6 (other)
VH: EVQLLESGGGLVQPGGSLRLSCAASGFTFENYGMAWVRQAPGKGLEWVSNIGRAGSVTYYADSVKGRFTISRDNSKNTLYLQMNSLRAEDTAVYYCAKVQSWRTFDYWGQGTLVTVSS
notes: VH dAb
Consider B12, for which the binding result in experiment [1] is “binds”.

B13: DOM21-44 (other)
VH: EVQLLESGGGLVQPGGSLRLSCAASGFTFARYTMVWVRQAPGKGLEWVSAIHFDGRTTYYADSVKGRFTISRDNSKNTLYLQMNSLRAEDTAVYYCAKNEWASLKHFDYWGQGTLVTVSS
notes: VH dAb
For B13, the binding result in experiment [1] is on record as “binds”.

B14: DOM21-28 (other)
VL: DIQMTQSPSSLSASVGDRVTITCRASQSISHSLVWYQQKPGKAPKLLIYWASLLQSGVPSRFSGSGSGTDFTLTISSLQPEDFATYYCQQGMTTPFTFGQGTKVEIKR
notes: VK dAb
In the case of B14, the binding result in experiment [1] is on record as “binds”.
